Experimental data from patent CN1948343A (BEIJING ANBOTE GENE ENGINEERIN, dated 2007).

What was measured:
重组人TNF-α [1] = target: T1, 重组人TNF-α (human, UniProt P01375 77-233); assay: competition ELISA: inhibition of binding of 1 μg/ml TNF-α to coated L929 TNF receptor extract
重组人TNF-α [2] = target: T1, 重组人TNF-α; assay: cell-based or functional assay

T1 sequence (P01375 77-233 limits assumed): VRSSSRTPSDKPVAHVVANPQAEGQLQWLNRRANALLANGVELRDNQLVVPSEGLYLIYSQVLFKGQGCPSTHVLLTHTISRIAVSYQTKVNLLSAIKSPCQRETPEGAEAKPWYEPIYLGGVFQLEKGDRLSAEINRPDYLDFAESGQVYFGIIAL

IC50 (重组人TNF-α [1]) | MTT法: 抑制TNF-α对L929细胞的细胞毒作用, 50%抑制的浓度(IC50) (重组人TNF-α [2]) | MTT法: 抑制TNF-α对L929细胞的细胞毒作用, 50%的抑制浓度(IC50) (重组人TNF-α [2]) | Binder
3200 nM | 40 nM | – | 抗TNF-α鼠源单链抗体 TNF-scFv (scFv, part only; not given: C-terminal tail of construct, part only) scFv, part: QIQLVQSGPELKKPGETVKISCKASGYTFTHYGMNWVKQAPGKGLKWMGWINTYTGEPTYADDFKEHFAFSLETSASTVFLQINNLKNEDTATYFCARERGDAMDYWGQGTSVTVSSTSGGGGSGGGGSGGGGSSRSIVMTQTPKFLLVSAGDRVTITCTASQSVSNDVVWYQQKPGQSPKMLMYSAFNRYTGVPDRFTGRGYGTDFTFTISSVQAEDLAVYFCQQDYNSPRTFGGGTKLEIK
~400 nM | – | 2.5 nM | 抗TNF-α基因工程四价单链抗体 TNF-TeAb (scFv) QIQLVQSGPELKKPGETVKISCKASGYTFTHYGMNWVKQAPGKGLKWMGWINTYTGEPTYADDFKEHFAFSLETSASTVFLQINNLKNEDTATYFCARERGDAMDYWGQGTSVTVSSTSGGGGSGGGGSGGGGSSRSIVMTQTPKFLLVSAGDRVTITCTASQSVSNDVVWYQQKPGQSPKMLMYSAFNRYTGVPDRFTGRGYGTDFTFTISSVQAEDLAVYFCQQDYNSPRTFGGGTKLEIK
